According to patent US20190119318A1:
Blank lines part the entries; values can stand above or below the substance they belong to.

Key:
[1] = target: human polyclonal IgG (Gammanorm) (human); assay: column DBC; ligand 9.7 mg/ml; after 6 x 4 h 1.0 M NaOH
[2] = target: human polyclonal IgG (Gammanorm) (human); assay: column DBC; vs reference Zvar4; 0.5 M NaOH
[3] = target: human polyclonal IgG (Gammanorm) (human); assay: column DBC, 6 min residence; agarose beads; ligand 9.7 mg/ml
[4] = target: human polyclonal IgG (Gammanorm) (human); assay: as above; remark: listed apart in the source
[5] = target: human polyclonal IgG (Gammanorm) (human); assay: column DBC; ligand 9.7 mg/ml; after 6 x 4 h 0.5 M NaOH
[6] = target: human polyclonal IgG (Gammanorm) (human); assay: column DBC; vs reference Zvar4; 1.0 M NaOH
[7] = target: human polyclonal IgG (Gammanorm) (human); assay: SPR; after 100 CIP cycles 0.5 M NaOH
[8] = target: human polyclonal IgG (Gammanorm) (human); assay: SPR; vs reference Zvar2; 0.5 M NaOH
[9] = target: human polyclonal IgG (Gammanorm) (human); assay: SPR; after 200 CIP cycles 0.5 M NaOH
[10] = target: human polyclonal IgG (Gammanorm) (human); assay: SPR; after 300 CIP cycles 0.5 M NaOH
[11] = target: human polyclonal IgG (Gammanorm) (human); assay: SPR; vs reference Zvar4; 0.5 M NaOH
[12] = target: human polyclonal IgG (Gammanorm) (human); assay: SPR; vs reference Zvar4; 1 M NaOH
[13] = target: human polyclonal IgG (Gammanorm) (human); assay: SPR; after 100 CIP cycles 1 M NaOH
[14] = target: human polyclonal IgG (Gammanorm) (human); assay: SPR; vs reference Zvar1; 0.5 M NaOH cycles
[15] = target: human polyclonal IgG (Gammanorm) (human); assay: SPR; after 96-100 CIP cycles 0.5 M NaOH
[16] = target: human polyclonal IgG (Gammanorm) (human); assay: column DBC; ligand 10.8 mg/ml; after 6 x 4 h 0.5 M NaOH
[17] = target: human polyclonal IgG (Gammanorm) (human); assay: column DBC, 6 min residence; agarose beads; ligand 10.8 mg/ml
[18] = target: IgG1 monoclonal antibody (probe molecule); assay: SPR (Biacore), ligand on CM5 chip, IgG1 mAb as probe
[19] = target: human polyclonal IgG (Gammanorm) (human); assay: column DBC, 6 min residence; agarose beads; ligand […]
[20] = target: human polyclonal IgG (Gammanorm) (human); assay: column DBC; ligand 7.2 mg/ml; after 6 x 4 h 0.5 M NaOH
[21] = target: human polyclonal IgG (Gammanorm) (human); assay: column DBC; ligand […]; after 6 x 4 h 0.5 M NaOH
[22] = target: human polyclonal IgG (Gammanorm) (human); assay: column DBC, 6 min residence; agarose beads; ligand […]; remark: listed apart in the source
[23] = target: human polyclonal IgG (Gammanorm) (human); assay: column DBC, 6 min residence; agarose beads; ligand 7.2 mg/ml
[24] = target: human polyclonal IgG (Gammanorm) (human); assay: column DBC; ligand […]; after 6 x 4 h 1.0 M NaOH
[25] = target: human polyclonal IgG (Gammanorm) (human); assay: column DBC, 6 min residence; agarose beads; ligand 7.0 mg/ml
[26] = target: human polyclonal IgG (Gammanorm) (human); assay: column DBC; ligand 7.0 mg/ml; after 6 x 4 h 0.5 M NaOH

Substance: Zvar(Q9A,N11E,N43A)4 (designed binder)
remaining capacity 100 cycles [7]: 81%
remaining capacity 200 cycles [9]: 62%
remaining capacity 300 cycles [10]: 41%
capacity relative to ref. 100 cycles [11]: 1.21
capacity relative to ref. 200 cycles [11]: 1.72
capacity relative to ref. 300 cycles [11]: 2.56

Substance: Zvar(Q9A,N11E,Q40V,A42K,N43A,L44I)2 with A56, P57 and K58 in linker deleted (designed binder)
remaining capacity 100 cycles [7]: 68%
capacity relative to ref. 100 cycles [8]: 1.26

Substance: Zvar(Q9A,N11E,D37E,Q40V,A42K,N43A,L44I)4 (designed binder)
remaining capacity 100 cycles [7]: 81%
capacity relative to ref. 100 cycles [11]: 1.13

Substance: Zvar(Q9A,N11E,Q40V,A42K,N43A,L44I)2 with YEDG inserted in linker between K58 and V1 (designed binder)
remaining capacity 100 cycles [7]: 72%
capacity relative to ref. 100 cycles [8]: 1.31

Substance: Zvar(Q9A,N11E,Q40V,A42K,N43A,L44I)2 with P57, K58, V1, D2 and A3 in linker deleted (designed binder)
remaining capacity 100 cycles [7]: 74%
capacity relative to ref. 100 cycles [8]: 1.35

Substance: Zvar(Q9A,N11K,H18K,D37E,A42R,N43A,L44I)1 (designed binder)
capacity relative to reference [14]: 1.4
capacity after 96-100 cycles [15]: 63%

Substance: Zvar(Q9A,N11E,D37E,Q40V,A42R,N43A,L44I)4 (designed binder)
remaining capacity 100 cycles [7]: 84%
capacity relative to ref. 100 cycles [11]: 1.17

Substance: Zvar(Q9A,N11E,Q40V,A42K,N43A,L44I,D53K)1 (designed binder)
capacity relative to reference [14]: 1.41
capacity after 96-100 cycles [15]: 65%

Substance: Zvar(Q9A,N11E,Q40V,A42K,N43A,L44I)2 with K4, F5, D6, K7 and E8 in linker deleted (designed binder)
remaining capacity 100 cycles [7]: 70%
capacity relative to ref. 100 cycles [8]: 1.3

Substance: Zvar(Q9A,N11E,A29I,Q40V,A42K,N43A,L44I)1 (designed binder)
capacity relative to reference [14]: 1.23
capacity after 96-100 cycles [15]: 58%

Substance: Zvar(Q9A,N11E,Q40V,A42K,N43A,L44I)2 with V1, D2 and A3 in linker deleted (designed binder)
remaining capacity 100 cycles [7]: 75%
capacity relative to ref. 100 cycles [8]: 1.39

Substance: Zvar(Q9A,N11E,Q40V,A42K,N43A,L44I)2 with V1, D2, A3, K4, F5, D6, K7 and E8 in linker deleted (designed binder)
remaining capacity 100 cycles [7]: 62%
capacity relative to ref. 100 cycles [8]: 1.13

Substance: Zvar(Q9A,N11E,N28A,N43A)4 with an additional N-terminal cysteine (designed binder)
initial IgG capacity Qb10 [19]: 50 mg/mL
initial IgG capacity Qb10 [25]: 49.1 mg/mL
remaining IgG capacity Qb10 after six 4 h cycles [21]: 46.2 mg/mL
remaining IgG capacity after six 4 h cycles [21]: 93%
capacity retention relative to ref. after six 4 h cycles ([2]; ligand content 7.0 mg/ml): 1.5
remaining IgG capacity Qb10 after six 4 h cycles [26]: 44.1 mg/mL
remaining IgG capacity after six 4 h cycles [26]: 90%

More lines, now with the values ahead:

remaining IgG capacity Qb10 after six 4 h cycles [1]: 48.1 mg/mL
remaining IgG capacity after six 4 h cycles [1]: 77%
capacity retention relative to ref. after six 4 h cycles [2]: 1.53
initial IgG capacity Qb10 [3]: 62.1 mg/mL
initial IgG capacity Qb10 [4]: 56.3 mg/mL
remaining IgG capacity Qb10 after six 4 h cycles [5]: 52 mg/mL
remaining IgG capacity after six 4 h cycles [5]: 92%
capacity retention relative to ref. after six 4 h cycles [6]: 1.44
Substance: Zvar(N11K,H18K,S33K,D37E,A42R,N43A,L44I,K50R,L51Y)4 with an additional N-terminal cysteine (designed binder)

remaining capacity 100 cycles [7]: 70%
capacity relative to ref. 100 cycles [8]: 1.27
Substance: Zvar(Q9A,N11E,Q40V,A42K,N43A,L44I)2 with D2, A3 and K4 in linker deleted (designed binder)

remaining capacity 100 cycles [7]: 84%
capacity relative to ref. 100 cycles [11]: 1.24
Substance: Zvar(Q9A,N11E,N28A,Q40V,A42K,N43A,L44I)4 (designed binder)

remaining capacity 100 cycles [7]: 80%
remaining capacity 200 cycles [9]: 62%
capacity relative to ref. 100 cycles [12]: 2.04
remaining capacity 300 cycles [10]: 42%
remaining capacity 100 cycles [13]: 55%
capacity relative to ref. 100 cycles [11]: 1.19
capacity relative to ref. 200 cycles [11]: 1.72
capacity relative to ref. 300 cycles [11]: 2.62
Substance: Zvar(Q9A,N11E,N28A,N43A)4 (designed binder)

remaining capacity 100 cycles [7]: 76%
capacity relative to ref. 100 cycles [8]: 1.38
Substance: Zvar(Q9A,N11E,Q40V,A42K,N43A,L44I)2 with K58, V1 and D2 in linker deleted (designed binder)

capacity relative to reference [14]: 1.28
capacity after 96-100 cycles [15]: 60%
Substance: Zvar(Q9A,N11E,A29T,Q40V,A42K,N43A,L44I)1 (designed binder)

capacity retention relative to ref. after six 4 h cycles [2]: 1.3
remaining IgG capacity Qb10 after six 4 h cycles [16]: 52.5 mg/mL
remaining IgG capacity after six 4 h cycles [16]: 92%
initial IgG capacity Qb10 [17]: 56.9 mg/mL
Substance: Zvar(Q9A,N11K,H18K,D37E,A42R)4 with an additional N-terminal cysteine (designed binder)

capacity relative to reference [14]: 1.4
capacity after 96-100 cycles [15]: 66%
Kd [18]: 1.07 nM
koff [18]: 0.000437 s⁻¹
kon [18]: 410000 M⁻¹ s⁻¹
Substance: Zvar(Q9A,N11E,Q40V,A42K,N43A,L44I)1 (designed binder)

capacity relative to reference [14]: 1.28
capacity after 96-100 cycles [15]: 59%
Substance: Zvar(Q9A,N11E,Q40del,A42K,N43A,L44I)1 (designed binder)

remaining capacity 100 cycles [7]: 84%
remaining capacity 200 cycles [9]: 65%
capacity relative to ref. 100 cycles [12]: 2
remaining capacity 300 cycles [10]: 48%
remaining capacity 100 cycles [13]: 54%
capacity relative to ref. 100 cycles [11]: 1.25
capacity relative to ref. 200 cycles [11]: 1.81
capacity relative to ref. 300 cycles [11]: 3
Substance: Zvar(Q9A,N11E,Q40V,A42K,N43E,L44I)4 (designed binder)

initial IgG capacity Qb10 [19]: 56.3 mg/mL
remaining IgG capacity Qb10 after six 4 h cycles [20]: 44.2 mg/mL
remaining IgG capacity after six 4 h cycles [20]: 90%
remaining IgG capacity Qb10 after six 4 h cycles [21]: 53.6 mg/mL
remaining IgG capacity after six 4 h cycles [21]: 95%
capacity retention relative to ref. after six 4 h cycles ([2]; ligand content 7.2 mg/ml): 1.5
initial IgG capacity Qb10 [22]: 60.3 mg/mL
initial IgG capacity Qb10 [23]: 49 mg/mL
remaining IgG capacity Qb10 after six 4 h cycles [24]: 56 mg/mL
remaining IgG capacity after six 4 h cycles [24]: 93%
capacity retention relative to ref. after six 4 h cycles [6]: 1.67
Substance: Zvar(Q9A,N11E,Q40V,A42K,N43A,L44I)4 with an additional N-terminal cysteine (designed binder)

capacity relative to reference [14]: 1.28
capacity after 96-100 cycles [15]: 60%
Substance: Zvar(Q9A,N11E,A29Q,Q40V,A42K,N43A,L44I)1 (designed binder)

capacity relative to reference [14]: 1.26
capacity after 96-100 cycles [15]: 58%
Substance: Zvar(Q9A,N11E,A29R,Q40V,A42K,N43A,L44I)1 (designed binder)

capacity relative to reference [14]: 1.2
capacity after 96-100 cycles [15]: 55%
Substance: Zvar(Q9A,N11E,Q40V,A42K,N43del,L44I)1 (designed binder)
